In PMC3415792 (ACS chemical biology, 2011):

Columns and labels:
crystal structure = target: the molecule itself; test: crystal structure
[1] = target: soluble human CD40 extracellular domain (human); test: SPR

Kd [1]: ~13 µM
B1: myc tagged form of soluble human CD40L (ligand)
chain: NMGDQNPQIAAHVISEASSKTTSVLQWAEKGYYTMSNNLVTLENGKQLTVKRQGLYYIYAQVTFCSNREASSQAPFIASLCLKSPGRFERILLRAANTHSSAKPCGQQSIHLGGVFELQPGASVFVNVTDPSQVSHGTGFTSFGLLKL
modifications: glycan (3 glycan chains in the model of the trimer)
stoichiometry N (crystal structure): 3
